± gives the uncertainty stated by the source.
Assay: self-splicing fitness, log relative to wild type (ln ratio); higher = more splicing; Tetrahymena group I intron in knt gene, E. coli kanamycin selection, DiMSum; sequences stand for … in CUCUCU…GGAGGGAAAAGUUAUCAGGCAUGCACCUGGUAGCUAGUCUUUAAACCAAUAGAUUGCAUCGGUUUAAAAGGCAAGACCGUCAAAUUGCGGGAAAGGGGUCAACAGCCGUUCAGUACCAAGUCUCAGGGGAAACUUUGAGAUGGCCUUGCAAAGGGUAUGGUAAUAAGCUGACGGACAUGGUCCUAACCACGCAGCCAAGUCCUAAGUCAACAGAUCUUCUGUUGAUAUGGAUGCAGUUCACAGACUAAAUGUCGGUCGGGGAAGAUGUAUUCUUCUCAUAAGAUAUAGUCGGACCUCUCCUUAAUGGGAGCUAGCGGAUGAAGUGAUGCAACACUGGAGCCGCUGGGAACUAAUUUGUAUGCGAAAGUAUAUUGAUUAGUUUUGGAGUACUCGUGGUCG
Summary of the method: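 Colonies from six replicate transformations of E. coli BL21(DE3) were pooled and amplicon-sequenced on an Illumina HiSeq 2500. The library placed an intron with all eight P1ex-region nucleotides randomised inside the knt kanamycin-resistance gene on pET-22b(+), and cells grew overnight at 37°C or 30°C on LB agar with or without 25 μg/mL kanamycin (plus 100 μg/mL carbenicillin, 50 μM IPTG, 0.2% rhamnose). Fitness is the DiMSum error-weighted combination of wild-type-normalised replicate fold changes, kanamycin versus none.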

Row | Sequence | self-splicing fitness (ln) (30 °C) | self-splicing fitness (ln) (37 °C)
1 | CAUAAGCAAUAUUACGGGAA | -2.98 ± 0.21 | -2.23 ± 0.16
2 | CCCGAGCAAUAUUACGGCAG | -2.53 ± 0.29 | -2.65 ± 0.44
3 | UGGUAGCAAUAUUACGGUUC | -3.54 ± 0.46 | -3.1 ± 0.47
4 | GGAAAGCAAUAUUACGACAU | -0.445 ± 0.013 | -0.0162 ± 0.033
5 | GGUAAGCAAUAUUACGGAGC | -2.99 ± 0.2 | -1.98 ± 0.22
6 | UGCGAGCAAUAUUACGCAAU | -3.57 ± 0.18 | -2.72 ± 0.14
7 | AAUAAGCAAUAUUACGCUAC | -3.62 ± 0.34 | -1.82 ± 0.23
8 | GUAAAGCAAUAUUACGUACU | -1.01 ± 0.076 | -0.965 ± 0.13
9 | GCAGAGCAAUAUUACGUAAC | -2.84 ± 0.29 | 0.113 ± 0.22
10 | CUCAAGCAAUAUUACGUCUU | -3.42 ± 0.21 | -2.06 ± 0.16
11 | AUGGAGCAAUAUUACGAGUU | -4.04 ± 0.43 | -3.03 ± 0.22
12 | AAGCAGCAAUAUUACGUGCA | -0.892 ± 0.065 | -0.453 ± 0.084
13 | UCAAAGCAAUAUUACGCUCC |  | -2.37 ± 0.48
14 | GACCAGCAAUAUUACGCAAG | -1.81 ± 0.089 | -1.15 ± 0.11
15 | GACAAGCAAUAUUACGUGAG | -2.28 ± 0.058 | -1.43 ± 0.06
16 | CCAGAGCAAUAUUACGGUCG | -1.35 ± 0.1 | -0.448 ± 0.12
17 | GCAGAGCAAUAUUACGAGGG | -3.47 ± 0.22 | -2.2 ± 0.24
18 | GUUGAGCAAUAUUACGACUC | 0.144 ± 0.2 | -0.535 ± 0.19
19 | CCUUAGCAAUAUUACGAGUC |  | -2.7 ± 0.28
20 | UCAAAGCAAUAUUACGUUGG | -3.81 ± 0.18 | -3 ± 0.24
21 | CGUCAGCAAUAUUACGGUAG | -0.184 ± 0.059 | 0.0634 ± 0.064
22 | AUCGAGCAAUAUUACGUGUG | -3.04 ± 0.13 | -2.92 ± 0.18
23 | CGUCAGCAAUAUUACGUGAA | -2.11 ± 0.087 | -0.281 ± 0.092
24 | CGUAAGCAAUAUUACGGUAA | -3.06 ± 0.28 | -1.36 ± 0.17
25 | CUUUAGCAAUAUUACGACGU | -3.69 ± 0.38 | -1.86 ± 0.3
26 | GCGUAGCAAUAUUACGAAGC | -3.48 ± 0.3 | -1.67 ± 0.47

Row | Sequence | self-splicing fitness (ln) (30 °C) | self-splicing fitness (ln) (37 °C)
27 | GGUUAGCAAUAUUACGAAUU | 0.0573 ± 0.13 | -0.482 ± 0.16
28 | AACGAGCAAUAUUACGGAUC | -2.26 ± 0.19 | -2.31 ± 0.17
29 | GCGCAGCAAUAUUACGGUAG | -3.4 ± 0.15 | -1.88 ± 0.14
30 | CAACAGCAAUAUUACGCUGA | -3.74 ± 0.2 | -3.02 ± 0.2
31 | CUACAGCAAUAUUACGAGGG | -3.38 ± 0.19 | -2.59 ± 0.2
32 | UGAUAGCAAUAUUACGAAGG | -2.96 ± 0.15 | -2.26 ± 0.2
33 | UCGCAGCAAUAUUACGGAGC | -3.54 ± 0.35 | -1.89 ± 0.26
34 | GUUAAGCAAUAUUACGGGCC |  | -2.12 ± 0.37
35 | CCAAAGCAAUAUUACGAACC | -3.78 ± 0.47 | -1.5 ± 0.34
36 | UCUAAGCAAUAUUACGAGCG | -1.19 ± 0.1 | -0.708 ± 0.12
37 | AGGAAGCAAUAUUACGCUUA | -2.41 ± 0.2 | -0.908 ± 0.17
38 | AAUUAGCAAUAUUACGUGUG | -2.11 ± 0.11 | -0.784 ± 0.096
39 | AACGAGCAAUAUUACGUAAA | -3 ± 0.24 | -2.49 ± 0.33
40 | AACAAGCAAUAUUACGAUAC | -3.73 ± 0.19 | -1.71 ± 0.12
41 | ACUAAGCAAUAUUACGCUCG | -0.345 ± 0.09 | -0.528 ± 0.11
42 | UUCCAGCAAUAUUACGACCG | -1.25 ± 0.099 | -0.758 ± 0.14
43 | UCCAAGCAAUAUUACGCUUC | -3.36 ± 0.15 | -4.24 ± 0.2
44 | GGAUAGCAAUAUUACGUUUU | -1.33 ± 0.11 | -1.62 ± 0.14
45 | AUCUAGCAAUAUUACGCUUG | -1.85 ± 0.12 | -1.36 ± 0.14
46 | AGCGAGCAAUAUUACGCCGA |  | -0.607 ± 0.36
47 | GUCAAGCAAUAUUACGCGAU | -4.38 ± 0.28 | -3.64 ± 0.39
48 | GCGAAGCAAUAUUACGUAAC | -2.64 ± 0.14 | -1.44 ± 0.16
49 | UAAUAGCAAUAUUACGGUCU | -2.75 ± 0.16 | -2.49 ± 0.16
50 | CGCAAGCAAUAUUACGUAGG | -1.24 ± 0.057 | -0.509 ± 0.075
51 | GAGUAGCAAUAUUACGCGUU | -2.44 ± 0.095 | -0.8 ± 0.09
52 | UUACAGCAAUAUUACGACAC | -3.53 ± 0.43 | 

Row | Sequence | self-splicing fitness (ln) (30 °C) | self-splicing fitness (ln) (37 °C)
53 | UUCGAGCAAUAUUACGAUCA | -1.89 ± 0.2 | -0.432 ± 0.14
54 | CGCAAGCAAUAUUACGGAGU | -3.16 ± 0.2 | -1.68 ± 0.18
55 | ACACAGCAAUAUUACGAGAA | -3.53 ± 0.37 | -2.54 ± 0.24
56 | UUGAAGCAAUAUUACGAGAG | -1.5 ± 0.12 | -0.926 ± 0.14
57 | GAUCAGCAAUAUUACGCAUG | -0.141 ± 0.095 | 0.865 ± 0.14
58 | AGCCAGCAAUAUUACGGUAU | -2.57 ± 0.1 | -1.14 ± 0.094
59 | CUGAAGCAAUAUUACGCAUG | -0.485 ± 0.063 | 0.071 ± 0.1
60 | GCUCAGCAAUAUUACGUGUU | -0.538 ± 0.055 | 0.555 ± 0.064
61 | CCGCAGCAAUAUUACGCAGA | -2.89 ± 0.2 | -2.25 ± 0.17
62 | CGUAAGCAAUAUUACGUCCU | -1.88 ± 0.15 | -0.604 ± 0.17
63 | UCUGAGCAAUAUUACGGUAA | -2.84 ± 0.33 | -2.24 ± 0.3
64 | GUCGAGCAAUAUUACGUAAG | -2.59 ± 0.14 | -1.34 ± 0.18
65 | UGUUAGCAAUAUUACGGUCU | -1.33 ± 0.09 | -0.963 ± 0.1
66 | GAGUAGCAAUAUUACGCCGG | -1.99 ± 0.35 | 
67 | AACGAGCAAUAUUACGUUCU | -2.19 ± 0.14 | -1.93 ± 0.2
68 | UGUAAGCAAUAUUACGUAAU | -2.84 ± 0.095 | -1.33 ± 0.12
69 | AAAAAGCAAUAUUACGACAC | -0.799 ± 0.094 | -0.575 ± 0.13
70 | GCGGAGCAAUAUUACGAAGC | -2.45 ± 0.23 | -2.13 ± 0.4
71 | UGUAAGCAAUAUUACGGAAA | -1.83 ± 0.17 | -1.67 ± 0.2
72 | CCCAAGCAAUAUUACGCACG | -2.65 ± 0.17 | -2.84 ± 0.43
73 | CCGAAGCAAUAUUACGCUGA | -3.08 ± 0.27 | -3.41 ± 0.42
74 | CUAUAGCAAUAUUACGAACA | -2.76 ± 0.19 | -2.49 ± 0.2
75 | CCUAAGCAAUAUUACGACGC |  | -1.59 ± 0.42
76 | UUAGAGCAAUAUUACGGCAA | -0.627 ± 0.12 | -0.584 ± 0.18
77 | ACGAAGCAAUAUUACGGCGA | -0.157 ± 0.087 | 0.0766 ± 0.12

— the supplement of paper PMC7877785
